Source: doi:10.1101/600692v2

How the values were obtained:
purified protein [1] = substrate: O=C(O)c1ccc(O)cc1; experiment: purified protein; settings: with glutamate and ATP
purified protein [2] = substrate: C=C(O[C@H]1C=CC=C(C(=O)O)[C@@H]1O)C(=O)O; experiment: purified protein; settings: with glutamate and ATP; isochorismate made from chorismate by ICS1

B1: PBS3 (AvrPphB SUSCEPTIBLE3) (Arabidopsis thaliana) (protein)
chain: MKPIFDINETFEKQLKDLTSNVKSIQDNLLEEIITPNTKTEYLQRFLIDRFDKELFKKNVPIVSYEDIKPYLDRVVNGESSDVISARTITGFLLSSGTSGGAQKMMPWNNKYLDNLTFIYDLRMQVITKHVKGVEEGKGMMFLFTKQESMTPSGLPARVATSSYFKSDYFKNRPSNWYYSYTSPDEVILCPNNTESLYCHLLCGLVQRDEVVRTGSIFASVMVRAIEVLKNSWEELCSNIRSGHLSNWVTDLGCQNSVSLVLGGPRPELADTIEEICNQNSWKGIVKRLWPNTKYIETVVTGSMGQYVPMLNYYCNDLPLVSTTYGSSETTFGINLDPLCKPEDVSYTFMPNMSYFEFIPMDGGDKNDVVDLEDVKLGCTYEPVVTNFAGLYRMRVGDIVLVTGFYNNAPQFKFVRRENVVLSIDSDKTNEEDLFKAVSQAKLVLESSGLDLKDFTSYADTSTFPGHYVVYLEVDTKEGEEKETAQFELDEEALSTCCLVMEESLDNVYKRCRFKDGSIGPLEIRVVRQGTFDSLMDFFISQGASTGQYKTPRCIKSGKALQVLETCVVAKFFSI
Q: What does the source list for B1?
A: Km (purified protein [1]): 311.54 µM; kcat (purified protein [1]): 13.46 min^-1 (printed as V/Et); Km (purified protein [2]): 14.90 µM; kcat (purified protein [2]): 472.29 min^-1 (printed as V/Et)
